The values that follow come from the Immune Epitope Database (IEDB).

One assay addresses HLA-A*01:01. The experiment in a line: IEDB peptide-MHC binding, purified MHC/direct/fluorescence; filed as Kd, often an IC50 or EC50 that approximates it; ≥ and ≤ were set here for values at or beyond the usual limits of such assays.
Assay [1] deals with HLA-A*02:01. The description is as above.
Another assay has as its target HLA-A*03:01. The description is as above.
Assay [2] has as its target HLA-A*11:01. The description is as above.
Assay [3] has as its target HLA-A*26:02. The description is as above. The following applies: source organism: Variola virus.
The next assay concerns the target HLA-A*26:03. The assay is described as above. The following applies: source organism: Variola virus.
A further assay concerns the target HLA-A*31:01. Described as above.
For a further assay, the target named is HLA-A*68:02. Described as above.
The next assay deals with HLA-A*69:01. Described as above.
Assay [4] has as its target HLA-B*07:02. The description is as above.
Assay [5] addresses HLA-B*08:01. The assay is described as above.
A further assay deals with HLA-B*08:03. Described as above.
Assay [6] has as its target HLA-B*15:01. The description is as above.
For assay [7], the target named is HLA-B*18:01. Described as above.
In the next assay the target is HLA-B*27:05. The description is as above.
For a further assay, the target named is HLA-B*40:01. Described as above.
For a further assay, the target named is HLA-B*46:01. The assay is described as above.
In a further assay the target is HLA-B*48:01. The description is as above.
Another assay addresses HLA-B*57:01. The assay is described as above.
The next assay addresses HLA-B*58:01. The assay is described as above.
Assay [8] deals with HLA-B*15:17. Nature of the assay: IEDB peptide-MHC binding, purified MHC/competitive/fluorescence; filed as Kd, often an IC50 or EC50 that approximates it; ≥ and ≤ were set here for values at or beyond the usual limits of such assays. As to conditions: source organism: Vaccinia virus WR.
For a further assay, the target named is HLA-A*23:01. The experiment in a line: IEDB peptide-MHC binding, purified MHC/direct/fluorescence; filed as Kd, often an IC50 or EC50 that approximates it; ≥ and ≤ were set here for values at or beyond the usual limits of such assays. The following applies: source organism: Vibrio vulnificus YJ016.
In the next assay the target is HLA-A*24:03. The description is as above.
A further assay deals with HLA-A*26:01. The assay is described as above.
The target in another assay is HLA-B*15:09. The assay is described as above. As to conditions: source organism: Vibrio vulnificus CMCP6.
Assay [9] deals with HLA-B*15:17. Described as above.
The target in a further assay is HLA-A*02:06. Nature of the assay: IEDB peptide-MHC binding, purified MHC/competitive/fluorescence; filed as Kd, often an IC50 or EC50 that approximates it; ≥ and ≤ were set here for values at or beyond the usual limits of such assays.
The target of assay [10] is HLA-B*18:01. The description is as above. As to conditions: source organism: Vibrio vulnificus YJ016.
The target in assay [11] is HLA-A*11:01. Nature of the assay: IEDB peptide-MHC binding, purified MHC/competitive/fluorescence; ≥ and ≤ were set here for values at or beyond the usual limits of such assays. The following applies: source organism: Zaire ebolavirus.
For assay [12], the target named is HLA-B*08:01. The description is as above.
The target of another assay is HLA-A*02:11. Nature of the assay: IEDB peptide-MHC binding, purified MHC/direct/fluorescence; filed as Kd, often an IC50 or EC50 that approximates it; ≥ and ≤ were set here for values at or beyond the usual limits of such assays. As to conditions: source organism: Salmonella enterica subsp. enterica serovar Typhimurium str. LT2.
Another assay addresses HLA-A*02:19. The assay is described as above. As to conditions: source organism: Salmonella enterica subsp. enterica serovar Typhimurium str. LT2.
Assay [13] addresses HLA-A*26:02. Nature of the assay: IEDB peptide-MHC binding, purified MHC/competitive/fluorescence; filed as Kd, often an IC50 or EC50 that approximates it; ≥ and ≤ were set here for values at or beyond the usual limits of such assays. The following applies: source organism: Salmonella enterica subsp. enterica serovar Enteritidis.
In assay [14] the target is HLA-A*02:01. Nature of the assay: IEDB peptide-MHC binding, purified MHC/competitive/fluorescence; ≥ and ≤ were set here for values at or beyond the usual limits of such assays. The following applies: source organism: Zaire ebolavirus.
The target in a further assay is HLA-A*24:02. Described as above.
Assay [15] deals with HLA-B*07:02. Described as above.
For assay [16], the target named is HLA-B*15:01. Described as above. The following applies: source organism: Zaire ebolavirus.
The target in a further assay is HLA-A*30:01. Nature of the assay: IEDB peptide-MHC binding, purified MHC/direct/fluorescence; filed as Kd, often an IC50 or EC50 that approximates it; ≥ and ≤ were set here for values at or beyond the usual limits of such assays. As to conditions: source organism: Corynebacterium glutamicum.
For a further assay, the target named is HLA-B*35:01. The description is as above. The following applies: source organism: Corynebacterium glutamicum.
[17] abbreviates: source organism: Camelpox virus M-96.
Where [18] appears, read: source organism: Vibrio vulnificus YJ016.
Where [19] appears, read: source organism: Vibrio vulnificus CMCP6.
Where [20] appears, read: source organism: Zaire ebolavirus.
The mark [21] stands for this setting: source organism: Salmonella enterica.
Setting [22] is: source organism: Corynebacterium glutamicum.

As for ATNDGLIKK, the Kd is at least 20 µM with HLA-A*01:01 (setting [17]); at least 20 µM with HLA-A*02:01 [1] (setting [17]); 1.46 µM in the assay with HLA-A*03:01 (setting [17]); 0.01 µM with HLA-A*11:01 [2] (setting [17]); at least 20 µM in the assay with HLA-A*26:02 [3]; at least 20 µM with HLA-A*26:03. Moreover, the Kd is 0.119 µM with HLA-A*31:01 (setting [17]); at least 20 µM in the assay with HLA-A*68:02 (setting [17]); at least 20 µM with HLA-A*69:01 (setting [17]); at least 20 µM with HLA-B*07:02 [4] (setting [17]); at least 20 µM in the assay with HLA-B*08:01 [5] (source organism: Variola virus); at least 20 µM with HLA-B*08:03 (source organism: Variola virus). The Kd with HLA-B*15:01 [6] (setting [17]), with HLA-B*18:01 [7] (setting [17]), with HLA-B*27:05 (setting [17]), with HLA-B*40:01 (setting [17]), with HLA-B*46:01 (setting [17]) and with HLA-B*48:01 (setting [17]) was at least 20 µM each time. Also, the Kd in the assay with HLA-B*57:01 (setting [17]) was at least 20 µM; with HLA-B*58:01 (setting [17]), 9 µM; with HLA-B*15:17 [8] it was at least 20 µM.

GWPDNYCEW: the Kd in the assay with HLA-A*01:01 (setting [18]) was at least 20 µM; with HLA-A*02:01 [1] (setting [18]), at least 20 µM; in the assay with HLA-A*11:01 [2] (setting [18]), at least 20 µM; with HLA-A*23:01 it was 0.225 µM; in the assay with HLA-A*24:03 (setting [18]), 0.0067 µM; in the assay with HLA-A*26:01 (setting [19]), at least 20 µM. The Kd in the assay with HLA-A*31:01 (setting [18]), with HLA-A*68:02 (setting [18]), in the assay with HLA-A*69:01 (setting [18]), with HLA-B*07:02 [4] (setting [18]), with HLA-B*08:01 [5] (setting [19]) and with HLA-B*08:03 (setting [19]) was at least 20 µM throughout. In addition, the equilibrium dissociation constant (Kd) is at least 20 µM with HLA-B*15:01 [6] (setting [18]); at least 20 µM in the assay with HLA-B*15:09; at least 20 µM in the assay with HLA-B*15:17 [9] (setting [18]); at least 20 µM with HLA-B*57:01 (setting [18]); at least 20 µM in the assay with HLA-B*58:01 (setting [18]); 2.17 µM in the assay with HLA-A*02:06 (setting [18]). Besides, the Kd with HLA-B*18:01 [10] amounted to 2.29 µM.

In the case of HRTIHHASA, the IC50 is at least 156 µM with HLA-A*11:01 [11] and at least 138 µM in the assay with HLA-B*08:01 [12] (setting [20]).

In the case of MGKTITDVK, the Kd was at least 20 µM in the assay with HLA-A*01:01 (setting [21]); at least 20 µM with HLA-A*02:01 [1] (setting [21]); at least 20 µM in the assay with HLA-A*02:11; 6 µM with HLA-A*02:19; at least 20 µM with HLA-A*03:01 (setting [21]); 0.42 µM with HLA-A*11:01 [2] (setting [21]). Moreover, the Kd was 1.57 µM with HLA-A*31:01 (setting [21]); at least 20 µM with HLA-A*68:02 (setting [21]); at least 20 µM with HLA-B*07:02 [4] (setting [21]); at least 20 µM with HLA-B*08:03 (source organism: Salmonella enterica subsp. enterica serovar Typhimurium str. LT2); at least 20 µM with HLA-B*15:01 [6] (setting [21]); at least 20 µM with HLA-B*15:17 [9] (setting [21]). In addition, the Kd with HLA-B*18:01 [7] (setting [21]), with HLA-B*27:05 (setting [21]), in the assay with HLA-B*40:01 (setting [21]), with HLA-B*46:01 (setting [21]), with HLA-B*48:01 (setting [21]) and with HLA-B*57:01 (setting [21]) was at least 20 µM in each case. For the same sequence, the dissociation constant Kd with HLA-B*58:01 (setting [21]) was at least 20 µM; with HLA-A*02:06 (source organism: Salmonella enterica subsp. enterica serovar Enteritidis), 0.289 µM; in the assay with HLA-A*26:02 [13], 2.74 µM.

NIKHKERIP came in with a half-inhibitory concentration (IC50) with HLA-B*08:01 [12] (source organism: Vaccinia virus Copenhagen) of at least 292 µM.

TIHHASAPL: the half-inhibitory concentration (IC50) with HLA-A*02:01 [14] was 5.58 µM; in the assay with HLA-A*11:01 [11], at least 85 µM; with HLA-A*24:02 (setting [20]) it was 46.9 µM; with HLA-B*07:02 [15] (setting [20]) it was 14.7 µM; with HLA-B*08:01 [12] (setting [20]) it was at least 126 µM; in the assay with HLA-B*15:01 [16] it was 14.4 µM.

As to TPKAQREIF, the IC50 is 14.1 µM in the assay with HLA-A*24:02 (source organism: Variola virus), 16.1 µM in the assay with HLA-B*07:02 [15] (source organism: Variola virus) and at least 142 µM with HLA-B*08:01 [12] (source organism: Variola virus).

As for WPALSSIAA, the Kd with HLA-A*01:01 (setting [22]), with HLA-A*02:01 [1] (setting [22]), with HLA-A*03:01 (setting [22]), with HLA-A*11:01 [2] (setting [22]), with HLA-A*24:03 (setting [22]) and with HLA-A*26:01 (setting [22]) was at least 20 µM throughout. Further, the dissociation constant Kd in the assay with HLA-A*30:01 was 7.5 µM; in the assay with HLA-A*31:01 (setting [22]), at least 20 µM; with HLA-B*07:02 [4] (setting [22]) it was 0.00878 µM; with HLA-B*08:01 [5] (setting [22]), 1.28 µM; with HLA-B*15:01 [6] (setting [22]) it was at least 5 µM; in the assay with HLA-B*27:05 (setting [22]), at least 20 µM. Also, the Kd was 0.0017 µM with HLA-B*35:01, at least 20 µM with HLA-B*40:01 (setting [22]) and at least 20 µM with HLA-B*58:01 (setting [22]).

What is called Kd is the concentration at which binding is half-saturated. Higher therefore signals a looser complex. By IC50 is commonly meant the concentration that inhibits the measured activity by half. A lower IC50 goes with greater potency in that assay.
